In the supplement of paper PMC10567573:
± gives the standard deviation.

Assay: protein stability index of a GFP-peptide fusion (GPS, HEK-293T) (PSI 1-6); higher = more stable
Details: c terminus: a fixed tail appended
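Further: 24-mer peptide tiles fused after GFP, lentivirally expressed, FACS-sorted into six equal bins by GFP/DsRed ratio, decoded by Illumina sequencing, PSI is the read-weighted mean bin number.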

Sequence | protein stability index (treatment: DMSO) | protein stability index (treatment: MLN4924 1 uM, 8 h)
MPVICGPEENYPSLQMSSAEMPHT [NANOGP8] | 4.47 ± 0.32 | 4.39 ± 0.24
DTCRTQLVWLVRELVKSGVLGADG [INTS3] | 2.51 ± 0.54 | 2.37 ± 0.24
VGFIMAGTPMALIVISYIHVAAAV [OR3A1] | 3.27 ± 0.35 | 2.87 ± 0.32
SSRSSEESSSDSGSSDSEEERATR [BRD3] | 5.06 ± 0.33 | 5.08 ± 0.2
QPWHAVMDIESLSVFTEPNRHFYR [FBXO33] | 2.26 ± 0.18 | 2.11 ± 0.13
DCMLSEEGATLLLRGLCANTVLRF [LRRC45] | 2.44 ± 0.48 | 2.42 ± 0.4
TIMSLASLLFVVMFIPETKGCSLE [SLC2A12] | 3.37 ± 0.21 | 3.33 ± 0.83
LQTLRSFSHTLVSLSLFGCTNIFY [ZER1] | 2.26 ± 0.35 | 3.67 ± 1.3
TFDIDPMVVTDCIQVDPPERPPPP [MCOLN1] | 4.69 ± 0.29 | 4.89 ± 0.35
IDKVRFLEQQNQVLETKWELLQQL [KRT71] | 2.74 ± 0.1 | 2.73 ± 0.27
TAEMARVLTDSNHVPLQRLSLLVH [FBXO33] | 2.83 ± 0.39 | 2.79 ± 0.096
RSSLLACILLSALGYLLLGAATNV [MFSD9] | 2.9 ± 0.34 | 3.44 ± 0.26
HEEEVKGLQAQIASSGLTVEVDAP [KRT18] | 5.51 ± 0.23 | 5.45 ± 0.27
KDLFTQRQNSAPARMLSSNERDSS [CDC25A] | 4.88 ± 0.23 | 4.84 ± 0.25
PLCMLLLIDHLALRARNYEYLIRL [TCF25] | 3.43 ± 1.1 | 2.92 ± 0.55
ATLTQVSVEYGYRPGATAVPTPLT [FCHO1] | 2.39 ± 0.36 | 2.47 ± 0.26
LPEKACQLDSRYWRITNAKGDVEE [FBXO3] | 4.47 ± 0.11 | 4.49 ± 0.52
ASPVPESSLTADLLSVDAFAAPSP [SNAP91] | 4.88 ± 0.28 | 4.97 ± 0.15
SFINFFTSVLATLVVFAVLGFKAN [SLC6A17] | 4.11 ± 0.85 | 3.06 ± 0.36
FACLSVLFVTVTAVNLSVSTLPSL [KCNG1] | 3.15 ± 0.28 | 3.46 ± 0.23
LHKQVLMGPYNPDTCPEVGFFDVL [ACBD3] | 2.4 ± 0.31 | 2.18 ± 0.21
LPLGIKVYEDETKVVHAVDGTAEN [PALM] | 5.02 ± 0.17 | 5.03 ± 0.23
TFLPDNFSPAKPKPSKELKPLLGS [MYORG] | 3.52 ± 0.088 | 3.69 ± 0.28

Sequence | protein stability index (treatment: DMSO) | protein stability index (treatment: MLN4924 1 uM, 8 h)
KMKHHLTEHMKTHTGLKPYECGVC [ZBTB22] | 3.32 ± 0.28 | 3.5 ± 0.47
CPSPEALSPEPPVYSLQDFDTLAT [PRKX] | 4.61 ± 0.26 | 4.84 ± 0.053
LTEDMYAQDSIELLTTSGIQFKKH [CNOT7] | 3.93 ± 0.23 | 4.09 ± 0.32
SSFFTCNQKCQLRLLKTLETSRSH [ATP23] | 2.44 ± 0.31 | 2.58 ± 0.33
LLDKAGVPPGVVNIVFGTGPRVGE [ALDH8A1] | 2.53 ± 0.16 | 2.76 ± 0.51
QVDGGANFSVDRWERKEGGGGISC [CPOX] | 4.4 ± 0.12 | 4.48 ± 0.21
PSEICDRLVNEYVELVNAACNFEP [ZER1] | 3.15 ± 0.3 | 3.17 ± 0.23
WVDITDVPPGDYLFQVVINPNFEV [LOXL2] | 2.94 ± 0.71 | 2.91 ± 0.98
VYPKEFHLNRGNHEDHMVNLRYGF [PPEF2] | 2.69 ± 0.29 | 2.71 ± 0.36
VFDALESDHEMREEEKLKAEEIRI [KCNK9] | 5.27 ± 0.21 | 5.23 ± 0.17
VVHEDFREDILSCYDVYSPDKEEQ [PKD2L1] | 4.7 ± 0.33 | 4.69 ± 0.082
ILQSPAFCEELESMIQEQFKKGKN [ADD1] | 3.53 ± 0.16 | 3.76 ± 0.17
SPNSTPAKTIDTSPPVDLFATASA [SNAP91] | 4.8 ± 0.18 | 4.67 ± 0.15
LLFACSPPPASQPVVKALFGASAA [CDC25A] | 2.44 ± 0.12 | 2.35 ± 0.12
SYAFPKEFPYRMNHILECEFYLLE [CCNC] | 2.24 ± 0.57 | 2.7 ± 1.1
MSREPTPPLPGDMSTGPIAESWCY [SPOPL] | 3.29 ± 0.32 | 3.37 ± 0.47
FVKDPQGRIIAVFKPKNEEPYGHL [PI4K2A] | 2.32 ± 0.26 | 2.9 ± 0.23
EDPVPGMLFFLPPGQHLSDYSQLN [FBXO34] | 3.03 ± 0.35 | 3.11 ± 0.38
SLNRACHQQNKIKDLQKEQKTLQV [CEP70] | 3.53 ± 0.66 | 3.45 ± 0.45
AYRTQVSSCCLHICQGIRGLWGTT [PKD2L1] | 2.34 ± 0.45 | 2.27 ± 0.28
LTGTESPFDLEQQWQDLMSIMEMQ [NFE2L1] | 3.95 ± 0.23 | 3.88 ± 0.47
PGPDTGPDSELSPCIPPGFRNLVA [SPAG8] | 3.79 ± 0.27 | 3.94 ± 0.17
LYRDVMLETFGHLLSIGPELPKPE [ZNF8] | 2.26 ± 0.27 | 2.56 ± 0.46

Sequence | protein stability index (treatment: DMSO) | protein stability index (treatment: MLN4924 1 uM, 8 h)
KVHMKDVMSALWVSGLDSSYLREQ [GAN] | 2.1 ± 0.47 | 2.23 ± 0.26
CSKSYSRRSFLIEHQRSHTGERPH [ZSCAN9] | 3.42 ± 0.073 | 3.52 ± 0.36
ATLAACTSNGWGVTDCKHTEDVGV [LOXL2] | 4.03 ± 0.42 | 4.08 ± 0.21
CSQYDRVYCGAGVQKEHEEYMKNL [PCMTD2] | 2.93 ± 0.61 | 2.6 ± 0.55
PSALVPSVTEYRLDGHTISDLSRS [MYBL2] | 4.25 ± 0.2 | 4.25 ± 0.39
CVDATRETNRLGRLINHSKCGNCQ [KMT5A] | 3.48 ± 0.41 | 3.84 ± 0.27
EEEQDILQRLRENAAHLGDKRRDL [TRIM39] | 5.06 ± 0.26 | 4.97 ± 0.059
TERLSHQITSRVVSAATQLRHFFL [RTN2] | 4.1 ± 0.17 | 4.08 ± 0.14
VKSKAKKTVDKHSDEYKIRRERNN [CEBPB] | 4.78 ± 0.39 | 4.79 ± 0.2
GISAKVFGATTNYGKDIVKACSLL [ZBED1] | 2.33 ± 0.4 | 2.26 ± 0.35
RSNADYQYQLLRCNVDLLKIIQLG [CNOT7] | 2.61 ± 0.46 | 2.51 ± 0.34
FAIPVGSGLGYIAGSKVKDMAGDW [SPNS1] | 2.35 ± 0.28 | 2.21 ± 0.44
GSYTVQSELGDYDPDECGSDYISE [EPB41L3] | 4.83 ± 0.48 | 5.2 ± 0.22
QVLNAIEAYTEHRPEITSRAINLL [ZER1] | 2.56 ± 0.27 | 2.66 ± 0.32
SAGVPPSAPLQGAVPPTSSVPPVA [SNAP91] | 4.79 ± 0.13 | 4.82 ± 0.15
TEEEDRIICEAHKVLGNRWAEIAK [MYBL2] | 3.85 ± 0.1 | 3.92 ± 0.46
ETQTLTGWSKGFIGMHREMQVNPI [RHOBTB1] | 2.89 ± 0.26 | 3.12 ± 0.23
RSGRLILWEAPPLGAGGGSLLPGA [NEK8] | 2.84 ± 0.43 | 3.11 ± 0.3
ETWNPFKLQYQLRNVRERIAKNLV [GOLPH3L] | 2.37 ± 0.34 | 2.37 ± 0.24
PPLPLHPGGDQGGPPVGPLSLGLA [WAS] | 4.26 ± 0.25 | 4.45 ± 0.15
VTNHNIRLFEDVRSWMFRRGPLNS [TRIM43] | 2.56 ± 0.45 | 2.49 ± 0.18
MEDGSLDITQSIEDDPLLDAQLLP [TMEM192] | 5.28 ± 0.24 | 5.18 ± 0.16
DYPYSPPAFRFLTKMWHPNIYETG [CDC34] | 2.17 ± 0.62 | 1.94 ± 0.28

Sequence | protein stability index (treatment: DMSO) | protein stability index (treatment: MLN4924 1 uM, 8 h)
VITKHNDDEQYAWESSAGGSFTVR [HSP90AB1] | 3.98 ± 0.2 | 4.16 ± 0.21
PREDGASVNDQCGFGVLRLDADAA [TSPAN10] | 4.38 ± 0.31 | 4.15 ± 0.17
ISSVGGEAMFCDFPKINHGILYDE [CFHR2] | 3.38 ± 0.26 | –
GTDLPLSEIPRGVRVALDYEAGQV [TRIM15] | 4.33 ± 0.25 | 4.46 ± 0.22
LGKTNAKAVSEMRQKIWNNMPKDH [DYNC2LI1] | 3.38 ± 0.23 | 3.62 ± 0.37
MDEEKLKQLNCVEISALNGNRINV [DLC1] | 3.6 ± 0.34 | 3.67 ± 0.3
LWVEERALLEGEKALWEDKTSLWE [CCDC70] | 2.6 ± 0.036 | 3 ± 0.11
YLSPRDFLSGLAFRVFHCTQYVRH [TPH1] | 2.31 ± 0.2 | 2.08 ± 0.17
YQSYFKTIEELQQKILCAKAENAR [KRT34] | 2.46 ± 0.33 | 2.86 ± 0.5
AGRPSLLRHDEVRTYFHEFGHVMH [NLN] | 2.48 ± 0.13 | 2.45 ± 0.47
ELESIRQDRDALHMEGLIVRERIL [FEM1B] | 3.44 ± 0.27 | 3.52 ± 0.36
VVFHCEFSSERGPRMCRYVRERDR [CDC25A] | 2.41 ± 0.56 | 2.4 ± 0.3
NARLQAMWGQSLLPPVSTSFTTGG [TNXB] | 2.51 ± 0.29 | 2.89 ± 0.33
PEFDYLKSLEIEEKINKIKWLPQQ [PPP2R2C] | 3.52 ± 0.23 | 3.58 ± 0.2
DMSWTCGNQDYKYRVSDVTKAGHS [VDR] | 2.73 ± 0.15 | 2.74 ± 0.095
AWSQRSAAGRVCRPPGPAGTEQSR [CPOX] | 4.16 ± 0.22 | 4.29 ± 0.16
QLSSFGSVDWLSQSSCSGPTHTPR [VENTX] | 3.48 ± 0.3 | 3.69 ± 0.29
TTTLEGSPSVPCIFCEEHFPVAEQ [ZNF277] | 4.17 ± 0.27 | 4.32 ± 0.26
KMKFVIGNGKNLVDFTFVENVVHG [NSDHL] | 2.24 ± 0.19 | 2.24 ± 0.47
FNCIRAAIAPFQSAGSPPELQGLP [NET1] | 2.67 ± 0.2 | 2.72 ± 0.2
SFCELHLKPHLEGAAFRDHQLLEP [TRIM29] | 2.87 ± 0.14 | 2.93 ± 0.087
